B1: Twister Ribozyme (parent)
chain: AACACUGCCAAUGCCGGUCCCAAGCCCGGAUAAAAGUGGAGGGGGCGG

In this series the parent is B1. Nature of the series: self-cleavage, relative activity (ratio to wild type); higher = more cleavage; co-transcriptional.
For the variant U6G G41C, the self-cleavage was found to be 0.092. With A1U G43A, the self-cleavage came out at 0.0467.

C25U A30C: the self-cleavage was 0.53. Next, A32C A40G: 0.134; U18C G29U: 0.27.

In the case of A1G G16C, the self-cleavage was 0.561. In the case of C14U G43U it was 0.526. C14U G43A: the self-cleavage was 0.369. Regarding C3U C9A, the self-cleavage is 0.147. In the case of A23C G44C it was 0.212; in that of A32G G36U, 0.244; in that of A22G G41A, 0.0888.

C3U U18A: the self-cleavage came out at 0.158. Next, G16C U18C: 0.114. For the variant C21A G44A, the self-cleavage stood at 0.113. Next, C5A G16A: 0.301. On to A32U G42U, for which the self-cleavage came out at 0.298. Turning to A35C G47A, the self-cleavage was found to be 0.832. Take C3A C20U: the self-cleavage amounted to 0.403.

In the case of G7U G24U, the self-cleavage came to 0.0676. On to C14G A32G, for which the self-cleavage was 0.117.

As for C3A A10G, the self-cleavage was 0.322. As to A4C G38U, the self-cleavage came to 0.591. In the case of A4U U6G it was 0.0301; in that of C19A C21G, 0.0812.

In the case of C3U G42U, the self-cleavage was 0.0877. Take A10G G24U: the self-cleavage worked out at 0.18.

Consider A10C G47U, for which the self-cleavage is 0.741.

As to C15G G36A, the self-cleavage is 0.0815. In the case of A34G G38U it was 0.677; in that of C27G G36C, 0.0945; in that of G7C G28U, 0.093.

Consider C20U G43C, for which the self-cleavage came to 0.125. In the case of G39A G45C, the self-cleavage was 0.234. For A35G C46A, the self-cleavage was found to be 0.747. In the case of C3U G29U it was 0.464; in that of G36A G45U, 0.579; in that of C15U G36A, 0.454.

For C3A G7U, the self-cleavage is 0.0571. For G13A C14U, the self-cleavage is 0.8.

For the variant C5A C15G, the self-cleavage worked out at 0.0768. In the case of C20G U37C it was 0.0961. Next, C3U A22C: 0.549; C15U C27U: 0.542. As to G36A G43U, the self-cleavage is 0.147.

As to A22C U37C, the self-cleavage amounted to 0.624. Next, A30C G42U: 0.0949.

Turning to A11G G24A, the self-cleavage is 0.0843. Next, C9U G28C: 0.549.

Turning to G41A G43U, the self-cleavage came out at 0.135. Consider A32U, for which the self-cleavage came out at 0.975. On to A4U G48U, for which the self-cleavage came out at 0.147. Next, C20A A32C: 0.111; C3A G44A: 0.221; G7A C26U: 0.102. Next, G29U G47U: 0.694; A11C C46A: 0.908. On to C20U G45A, for which the self-cleavage worked out at 0.838.

As for C20U G45C, the self-cleavage came to 0.425.

For U12G G38C, the self-cleavage is 0.881. Next, A2U G44A: 0.615; U12G G36U: 0.397; G17U C27U: 0.207. In the case of A2G G36C it was 0.105.

For G16C C19A, the self-cleavage is 0.165. In the case of A11U C25G, the self-cleavage worked out at 0.501.

For G39A G48C, the self-cleavage was found to be 0.532. Next, C14G C46G: 0.101. Turning to U6C, the self-cleavage is 0.596.

In the case of G7C A34C, the self-cleavage was found to be 0.118. For the variant C14U A23U, the self-cleavage stood at 0.722. Next, A33C G45C: 0.531; C27A G47C: 0.183; U12A C46A: 1.09. Next, C3U C14G: 0.0572; U18A G24A: 0.0868. In the case of U18A G24C it was 0.0951; in that of A2G A33U, 0.401. For the variant C8G C20G, the self-cleavage was 0.0475.

Take C20U: the self-cleavage came to 1.01. C20A: the self-cleavage was 0.16. In the case of C26G C46G it was 0.218; in that of G28U G41U, 0.419; in that of U31C A33G, 0.891. In the case of A1G A10G it was 0.438; in that of U37G G38A, 0.774. In the case of A1G A11G it was 0.414. As for C20G G36U, the self-cleavage was 0.0382. In the case of C5U G39A it was 0.167; in that of G24U G28C, 0.0992; in that of G28C U37A, 0.241. For U6G A32U, the self-cleavage worked out at 0.405.

Regarding C3U C21U, the self-cleavage was 0.0611. Take A32G A34G: the self-cleavage stood at 0.679. Consider A11G G41U, for which the self-cleavage stood at 0.65. Take C27U G29U: the self-cleavage is 0.441. Next, C46U: 0.958; C8A C15G: 0.0688; C5A G42U: 0.138.

Regarding C20A G36U, the self-cleavage amounted to 0.0906.

C15U G24C: the self-cleavage worked out at 0.115. In the case of G13C C14U, the self-cleavage was found to be 0.408. For G16A U31A, the self-cleavage was determined as 0.958. Next, A23G G28C: 0.246; C15U G42C: 0.296; C15U G42A: 0.204. Next, A4C A23U: 0.0688; U6A G41A: 0.203; A30G: 0.952. In the case of A30U it was 0.984; in that of A1U C8G, 0.0353; in that of G28U C46U, 0.922. Take G44U G48U: the self-cleavage is 0.545. For the variant G24A G41C, the self-cleavage amounted to 0.0854. Take G17C G28A: the self-cleavage stood at 0.069. In the case of C5U G42A, the self-cleavage came out at 0.184. In the case of C9U G24C it was 0.0718; in that of G39A C46G, 0.537; in that of A35C G43U, 0.456. As for C5G U12C, the self-cleavage amounted to 0.896. Next, G7C G38C: 0.0787; G38A G48C: 1.04; G36C G39A: 0.122. For G24U G42C, the self-cleavage turned out to be 0.0781.

Take C8U C14A: the self-cleavage is 0.63. In the case of C9U G17A it was 0.0711; in that of A40U G42C, 0.157. Regarding U18A A33G, the self-cleavage is 0.203.

In the case of U18A A33U, the self-cleavage was found to be 0.391. In the case of C26G G44C it was 0.149. In the case of U18G A23C it was 0.0482. In the case of U18G A23G it was 0.0817; in that of A22G G29U, 0.183; in that of A10G G44C, 0.965. Regarding U18A G43C, the self-cleavage is 0.144.

C27A U31G: the self-cleavage came to 0.629.

With G45A G48A, the self-cleavage was 0.785.

Regarding C19U G24C, the self-cleavage was 0.126. Next, G24A G29C: 0.0767; C5G A32G: 0.749. Turning to A10C A23C, the self-cleavage turned out to be 0.242.

In the case of C9G C21U, the self-cleavage is 0.0793. In the case of C8G A32U it was 0.322; in that of G13A A34G, 0.635; in that of A10C C20U, 0.941.

For the variant A32G G39A, the self-cleavage was 0.48. For A2C C3A, the self-cleavage worked out at 0.101. Next, G29A G38C: 0.7; C5U C8A: 0.193.

For the variant C5U C8G, the self-cleavage amounted to 0.132. Next, U31G G47U: 0.92; C9U G42C: 0.193; A10G C14G: 0.0768. Next, C25U G42U: 0.0953; A33C A35C: 0.522. Take C15G C27U: the self-cleavage stood at 0.094. Next, C19U A34C: 0.083; U12C A30C: 0.761; C25G U31G: 0.393. For C21G A35G, the self-cleavage was found to be 0.0519.

For C26G G42U, the self-cleavage was found to be 0.13. In the case of G13C U18C it was 0.0885; in that of A40C G43U, 0.136; in that of C15U G47C, 0.415. Turning to G42U, the self-cleavage was found to be 0.445. Next, U12C G42A: 0.42; A4U A11C: 0.0933.

Values taken from the RNAGym collection of RNA variant scans (doi:10.7554/elife.80360).
